{
  "source": "patent US7253271",
  "about": "(REGENTS OF THE UNIVERSITY OF MICHIGAN, dated 2007)",
  "binders": {"B1": {"name": "barttin (BSND protein), wild type, human (other)", "chain": "MADEKTFRIGFIVLGLFLLALGTFLMSHDRPQVYGTFYAMGSVMVIGGIIWSMCQCYPKITFVPADSDFQGILSPKAMGLLENGLAAEMKSPSPQPPYVRLWEEAAYDQSLPDFSHIQMKVMSYSEDHRSLLAPEMGQPKLGTSDGGEGGPGDVQAWMEAAVVIHKGSDESEGERRLTQSWPGPLACPQGPAPLASFQDDLDMDSSEGSSPNASPHDREEACSPQQEPQGCRCPLDRFQDFALIDAPTLEDEPQEGQQWEIALPNNWQRYPRTKVEEKEASDTGGEEPEKEEEDLYYGLPDGAGDLLPDKELGFEPDTQG", "notes": "Expressed in Xenopus oocytes, tsA201 cells or other transfected cells"}},
  "key": {"[1]": {"target": "T1, human ClC-Kb chloride channel (human, UniProt P51801 1-687)", "T1 construct": "whole, on cells; Expressed from cRNA in Xenopus oocytes or from cDNA in tsA201 cells; also called CIC-Kb; CLCNKB", "T1 sequence (looked up)": "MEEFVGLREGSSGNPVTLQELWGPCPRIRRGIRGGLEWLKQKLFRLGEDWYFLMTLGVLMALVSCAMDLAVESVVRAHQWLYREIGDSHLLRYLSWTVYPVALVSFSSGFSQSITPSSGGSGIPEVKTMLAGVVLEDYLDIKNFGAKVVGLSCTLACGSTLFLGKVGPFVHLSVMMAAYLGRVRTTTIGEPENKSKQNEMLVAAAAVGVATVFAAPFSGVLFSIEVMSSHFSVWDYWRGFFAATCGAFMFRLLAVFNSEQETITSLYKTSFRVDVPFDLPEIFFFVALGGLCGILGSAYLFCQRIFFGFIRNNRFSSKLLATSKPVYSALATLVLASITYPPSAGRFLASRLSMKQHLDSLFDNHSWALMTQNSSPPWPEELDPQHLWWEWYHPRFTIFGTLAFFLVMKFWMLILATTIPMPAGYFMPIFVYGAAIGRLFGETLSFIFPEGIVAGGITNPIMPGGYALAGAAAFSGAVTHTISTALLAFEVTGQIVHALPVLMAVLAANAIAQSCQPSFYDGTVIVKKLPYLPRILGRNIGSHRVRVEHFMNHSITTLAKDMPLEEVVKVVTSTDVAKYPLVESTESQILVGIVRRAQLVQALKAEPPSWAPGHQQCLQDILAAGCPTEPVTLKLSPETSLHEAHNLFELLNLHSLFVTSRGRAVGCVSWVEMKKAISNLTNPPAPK", "assay": "inferred from co-expression (currents, colocalisation); no direct binding assay"}, "[2]": {"target": "T2, human ClC-Ka chloride channel (human, UniProt P51800 1-687)", "T2 construct": "whole, on cells; Expressed from cRNA in Xenopus oocytes or from cDNA in tsA201 cells; also called CIC-Ka; CLCNKA", "T2 sequence (looked up)": "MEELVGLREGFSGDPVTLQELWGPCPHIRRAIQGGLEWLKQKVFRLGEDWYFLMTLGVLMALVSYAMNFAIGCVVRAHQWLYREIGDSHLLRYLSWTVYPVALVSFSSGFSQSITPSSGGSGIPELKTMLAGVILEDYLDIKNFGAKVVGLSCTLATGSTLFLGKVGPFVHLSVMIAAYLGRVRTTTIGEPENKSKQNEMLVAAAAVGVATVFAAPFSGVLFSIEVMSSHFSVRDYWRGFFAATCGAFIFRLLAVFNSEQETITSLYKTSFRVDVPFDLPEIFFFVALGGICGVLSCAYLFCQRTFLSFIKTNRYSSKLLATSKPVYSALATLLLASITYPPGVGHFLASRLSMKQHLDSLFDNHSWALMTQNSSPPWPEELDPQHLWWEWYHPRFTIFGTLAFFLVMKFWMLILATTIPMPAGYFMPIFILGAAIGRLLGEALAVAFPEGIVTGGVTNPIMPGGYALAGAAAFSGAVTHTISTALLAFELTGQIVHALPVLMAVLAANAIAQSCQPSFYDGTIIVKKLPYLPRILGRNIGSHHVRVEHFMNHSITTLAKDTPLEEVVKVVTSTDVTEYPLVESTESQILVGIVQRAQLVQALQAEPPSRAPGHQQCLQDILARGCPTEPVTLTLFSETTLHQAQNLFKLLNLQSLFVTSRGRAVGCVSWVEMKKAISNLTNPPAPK", "assay": "inferred from co-expression (currents, surface expression, colocalisation); no direct binding assay"}},
  "data": [
    {"binder": "B1", "values": [
      {"measurement": "binding result", "setting": "[1]", "value": "binds"},
      {"measurement": "binding result", "setting": "[2]", "value": "binds"}
    ]}
  ]
}
